IntAct's records for PubMed 35512704

B1: Mothers against decapentaplegic homolog 4 (Homo sapiens), Q13485 (parent)
chain: MDNMSITNTPTSNDACLSIVHSLMCHRQGGESETFAKRAIESLVKKLKEKKDELDSLITAITTNGAHPSKCVTIQRTLDGRLQVAGRKGFPHVIYARLWRWPDLHKNELKHVKYCQYAFDLKCDSVCVNPYHYERVVSPGIDLSGLTLQSNAPSSMMVKDEYVHDFEGQPSLSTEGHSIQTIQHPPSNRASTETYSTPALLAPSESNATSTANFPNIPVASTSQPASILGGSHSEGLLQIASGPQPGQQQNGFTGQPATYHHNSTTTWTGSRTAPYTPNLPHHQNGHLQHHPPMPPHPGHYWPVHNELAFQPPISNHPAPEYWCSIAYFEMDVQVGETFKVPSSCPIVTVDGYVDPSGGDRFCLGQLSNVHRTEAIERARLHIGKGVQLECKGEGDVWVRCLSDHAVFVQSYYLDREAGRAPGDAVHKIYPSAYIKVFDLRQCHRQMQQQAATAQAAAAAQAAAVAGNIPGPGSVGGIAPAISLSAAAGIGVDDLRRLCILRMSFVKGWGPDYPRQSIKETPCWIEIHLHRALQLLDEVLHTMPIADPQPLD
partner: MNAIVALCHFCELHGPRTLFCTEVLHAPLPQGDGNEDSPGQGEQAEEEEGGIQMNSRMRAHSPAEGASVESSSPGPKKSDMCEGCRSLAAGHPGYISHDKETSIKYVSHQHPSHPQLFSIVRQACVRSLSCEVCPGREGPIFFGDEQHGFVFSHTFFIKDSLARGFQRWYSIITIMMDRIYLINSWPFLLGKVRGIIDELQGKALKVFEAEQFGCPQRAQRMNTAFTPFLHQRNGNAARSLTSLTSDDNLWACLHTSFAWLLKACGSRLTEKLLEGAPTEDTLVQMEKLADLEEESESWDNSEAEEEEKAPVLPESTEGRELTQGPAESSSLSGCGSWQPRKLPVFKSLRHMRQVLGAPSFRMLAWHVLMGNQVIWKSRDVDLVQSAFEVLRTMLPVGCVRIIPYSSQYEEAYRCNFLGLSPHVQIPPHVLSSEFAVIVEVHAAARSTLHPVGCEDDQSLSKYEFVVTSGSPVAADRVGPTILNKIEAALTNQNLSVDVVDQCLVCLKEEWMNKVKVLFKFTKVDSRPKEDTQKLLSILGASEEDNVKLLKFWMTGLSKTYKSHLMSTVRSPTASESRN
B2: Mothers against decapentaplegic homolog 4 (Homo sapiens), Q13485 (parent)
chain: B1 chain
partner: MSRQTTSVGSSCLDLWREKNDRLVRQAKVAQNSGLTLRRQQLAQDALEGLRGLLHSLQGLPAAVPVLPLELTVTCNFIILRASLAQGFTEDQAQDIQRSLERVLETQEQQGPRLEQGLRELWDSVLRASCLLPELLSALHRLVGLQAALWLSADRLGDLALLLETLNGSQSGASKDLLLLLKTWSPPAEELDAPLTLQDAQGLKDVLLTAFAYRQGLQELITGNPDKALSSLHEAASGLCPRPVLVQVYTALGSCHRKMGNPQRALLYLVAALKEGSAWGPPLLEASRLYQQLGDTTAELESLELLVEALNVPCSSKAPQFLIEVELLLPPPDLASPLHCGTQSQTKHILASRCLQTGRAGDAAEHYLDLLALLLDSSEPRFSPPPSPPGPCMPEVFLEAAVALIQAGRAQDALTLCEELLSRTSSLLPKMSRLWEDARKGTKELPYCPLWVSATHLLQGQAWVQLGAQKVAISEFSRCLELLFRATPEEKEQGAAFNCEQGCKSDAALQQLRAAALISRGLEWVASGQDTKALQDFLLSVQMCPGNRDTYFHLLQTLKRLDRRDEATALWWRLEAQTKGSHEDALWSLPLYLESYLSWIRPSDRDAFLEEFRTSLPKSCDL
B3: Mothers against decapentaplegic homolog 4 (Homo sapiens), Q13485 (parent)
chain: B1 chain
partner: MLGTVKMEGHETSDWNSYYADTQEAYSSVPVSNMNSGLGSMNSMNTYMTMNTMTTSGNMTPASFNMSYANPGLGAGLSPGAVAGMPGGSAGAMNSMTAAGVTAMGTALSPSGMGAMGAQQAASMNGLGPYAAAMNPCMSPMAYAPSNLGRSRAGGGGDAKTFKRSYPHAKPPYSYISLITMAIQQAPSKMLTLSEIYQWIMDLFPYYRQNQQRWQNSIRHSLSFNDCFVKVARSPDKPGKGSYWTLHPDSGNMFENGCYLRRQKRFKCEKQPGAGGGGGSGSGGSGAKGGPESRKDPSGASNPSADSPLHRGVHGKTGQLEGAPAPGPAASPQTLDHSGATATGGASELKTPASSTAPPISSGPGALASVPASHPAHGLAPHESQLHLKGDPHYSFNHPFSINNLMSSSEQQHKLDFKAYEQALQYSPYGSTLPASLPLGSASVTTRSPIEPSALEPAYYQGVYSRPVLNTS
B4: Mothers against decapentaplegic homolog 4 (Homo sapiens), Q13485 (parent)
chain: B1 chain
partner: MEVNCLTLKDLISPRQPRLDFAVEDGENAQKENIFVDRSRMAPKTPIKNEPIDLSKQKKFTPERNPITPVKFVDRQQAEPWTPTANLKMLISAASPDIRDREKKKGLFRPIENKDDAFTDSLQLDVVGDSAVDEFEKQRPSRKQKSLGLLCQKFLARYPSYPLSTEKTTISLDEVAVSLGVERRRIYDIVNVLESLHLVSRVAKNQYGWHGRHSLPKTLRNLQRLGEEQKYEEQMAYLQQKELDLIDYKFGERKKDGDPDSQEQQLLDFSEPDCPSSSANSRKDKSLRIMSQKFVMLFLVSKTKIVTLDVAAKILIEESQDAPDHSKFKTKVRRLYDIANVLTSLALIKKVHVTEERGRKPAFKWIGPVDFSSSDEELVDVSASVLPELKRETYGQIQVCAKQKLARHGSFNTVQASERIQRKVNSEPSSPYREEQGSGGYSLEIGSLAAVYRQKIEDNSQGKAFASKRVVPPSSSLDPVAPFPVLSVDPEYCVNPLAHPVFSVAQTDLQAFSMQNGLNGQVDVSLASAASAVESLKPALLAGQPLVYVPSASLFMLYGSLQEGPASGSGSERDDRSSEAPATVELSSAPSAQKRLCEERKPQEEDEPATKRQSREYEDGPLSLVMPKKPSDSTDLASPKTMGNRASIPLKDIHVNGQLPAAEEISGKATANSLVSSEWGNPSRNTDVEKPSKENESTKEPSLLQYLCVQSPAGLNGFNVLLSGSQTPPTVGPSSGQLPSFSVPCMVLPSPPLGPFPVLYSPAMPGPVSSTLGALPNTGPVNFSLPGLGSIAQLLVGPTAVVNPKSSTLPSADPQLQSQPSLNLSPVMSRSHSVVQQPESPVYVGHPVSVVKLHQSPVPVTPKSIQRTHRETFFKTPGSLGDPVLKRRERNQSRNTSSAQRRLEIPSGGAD
B5: Mothers against decapentaplegic homolog 4 (Homo sapiens), Q13485 (parent)
chain: B1 chain
partner: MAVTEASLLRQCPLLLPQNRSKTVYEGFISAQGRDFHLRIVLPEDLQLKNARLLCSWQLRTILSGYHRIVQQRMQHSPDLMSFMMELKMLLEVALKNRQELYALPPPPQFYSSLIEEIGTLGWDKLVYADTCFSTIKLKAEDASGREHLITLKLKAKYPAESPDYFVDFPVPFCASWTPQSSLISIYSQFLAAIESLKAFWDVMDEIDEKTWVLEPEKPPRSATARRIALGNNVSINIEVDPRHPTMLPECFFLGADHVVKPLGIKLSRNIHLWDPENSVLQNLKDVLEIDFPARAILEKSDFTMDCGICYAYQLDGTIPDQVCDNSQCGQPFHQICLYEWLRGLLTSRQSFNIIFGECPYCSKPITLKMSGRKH
B6: Mothers against decapentaplegic homolog 4 (Homo sapiens), Q13485 (parent)
chain: B1 chain
partner: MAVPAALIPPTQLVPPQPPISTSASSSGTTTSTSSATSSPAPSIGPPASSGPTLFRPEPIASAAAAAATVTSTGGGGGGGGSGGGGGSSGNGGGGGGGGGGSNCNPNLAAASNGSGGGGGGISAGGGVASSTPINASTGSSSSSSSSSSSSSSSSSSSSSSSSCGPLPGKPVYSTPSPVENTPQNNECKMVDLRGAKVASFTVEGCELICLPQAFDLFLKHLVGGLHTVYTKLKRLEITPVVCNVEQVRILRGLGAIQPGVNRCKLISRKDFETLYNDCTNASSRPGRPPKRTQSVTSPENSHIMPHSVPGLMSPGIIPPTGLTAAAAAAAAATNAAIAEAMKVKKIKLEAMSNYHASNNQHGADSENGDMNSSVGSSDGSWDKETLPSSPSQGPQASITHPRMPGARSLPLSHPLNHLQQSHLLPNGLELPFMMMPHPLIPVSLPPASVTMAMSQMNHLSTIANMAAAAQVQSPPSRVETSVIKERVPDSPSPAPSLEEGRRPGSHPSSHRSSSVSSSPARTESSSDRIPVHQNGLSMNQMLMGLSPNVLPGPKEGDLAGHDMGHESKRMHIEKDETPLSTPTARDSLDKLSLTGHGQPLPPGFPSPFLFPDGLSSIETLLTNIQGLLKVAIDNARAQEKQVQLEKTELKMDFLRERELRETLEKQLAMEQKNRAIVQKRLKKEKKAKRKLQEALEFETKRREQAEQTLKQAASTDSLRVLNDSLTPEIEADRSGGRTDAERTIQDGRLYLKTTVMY

Variants of: B1
Conditions: with flcn_human FLCN

Row | effect of a mutation on the interaction | Variant
1 | with no effect | R361H

Variants of: B1
Conditions: with flcn_human FLCN
Remark: another data set of the same source

Row | effect of a mutation on the interaction | Variant
2 | with no effect | G386D

Variants of: B2
Conditions: with fancg_human FANCG

Row | effect of a mutation on the interaction | Variant
3 | with no effect | G386D

Variants of: B2
Conditions: with fancg_human FANCG
Remark: another data set of the same source

Row | effect of a mutation on the interaction | Variant
4 | with no effect | R361H

Variants of: B2
Conditions: with fancg_human FANCG
Remark: another data set of the same source

Row | effect of a mutation on the interaction | Variant
5 | with no effect | R361C

Variants of: B2
Conditions: with fancg_human FANCG
Remark: another data set of the same source

Row | effect of a mutation on the interaction | Variant
6 | with no effect | D351H

Variants of: B3
Conditions: with foxa1_human FOXA1, P55317

Row | effect of a mutation on the interaction | Variant
7 | with no effect | R361C

Variants of: B3
Conditions: with foxa1_human FOXA1, P55317
Remark: another data set of the same source

Row | effect of a mutation on the interaction | Variant
8 | with no effect | R361H

Variants of: B3
Conditions: with foxa1_human FOXA1, P55317
Remark: another data set of the same source

Row | effect of a mutation on the interaction | Variant
9 | with no effect | D351H

Variants of: B3
Conditions: with foxa1_human FOXA1, P55317
Remark: another data set of the same source

Row | effect of a mutation on the interaction | Variant
10 | with no effect | G386D

Variants of: B4
Conditions: with e2f7_human E2F7, Q96AV8

Row | effect of a mutation on the interaction | Variant
11 | with no effect | D351H

Variants of: B4
Conditions: with e2f7_human E2F7, Q96AV8
Remark: another data set of the same source

Row | effect of a mutation on the interaction | Variant
12 | with no effect | G386D

Variants of: B5
Conditions: with fancl_human FANCL

Row | effect of a mutation on the interaction | Variant
13 | with no effect | R361C

Variants of: B5
Conditions: with fancl_human FANCL
Remark: another data set of the same source

Row | effect of a mutation on the interaction | Variant
14 | with no effect | R361H

Variants of: B5
Conditions: with fancl_human FANCL
Remark: another data set of the same source

Row | effect of a mutation on the interaction | Variant
15 | with no effect | G386D

Variants of: B5
Conditions: with fancl_human FANCL
Remark: another data set of the same source

Row | effect of a mutation on the interaction | Variant
16 | increasing interaction strength | G386D

Variants of: B5
Conditions: with fancl_human FANCL
Remark: another data set of the same source

Row | effect of a mutation on the interaction | Variant
17 | with no effect | D351H

Variants of: B6
Conditions: with dach1_human DACH1, Q9UI36

Row | effect of a mutation on the interaction | Variant
18 | with no effect | D351H

Variants of: B6
Conditions: with dach1_human DACH1, Q9UI36
Remark: another data set of the same source

Row | effect of a mutation on the interaction | Variant
19 | with no effect | R361C

Variants of: B6
Conditions: with dach1_human DACH1, Q9UI36
Remark: another data set of the same source

Row | effect of a mutation on the interaction | Variant
20 | with no effect | R361H

Variants of: B6
Conditions: with dach1_human DACH1, Q9UI36
Remark: another data set of the same source

Row | effect of a mutation on the interaction | Variant
21 | with no effect | G386D
